This is an account of results in patent publication US20230227838A1, “ENHANCED CELL SURVIVAL AGAINST BIOTIC AND ABIOTIC STRESSES THROUGH SALICYLICK ACID-INDUCED NPR1 CONDENSATES” (priority 2020, published 2023).

Chain of FUS11, Proteasome component (PCI) domain protein (Q8W575 whole entry): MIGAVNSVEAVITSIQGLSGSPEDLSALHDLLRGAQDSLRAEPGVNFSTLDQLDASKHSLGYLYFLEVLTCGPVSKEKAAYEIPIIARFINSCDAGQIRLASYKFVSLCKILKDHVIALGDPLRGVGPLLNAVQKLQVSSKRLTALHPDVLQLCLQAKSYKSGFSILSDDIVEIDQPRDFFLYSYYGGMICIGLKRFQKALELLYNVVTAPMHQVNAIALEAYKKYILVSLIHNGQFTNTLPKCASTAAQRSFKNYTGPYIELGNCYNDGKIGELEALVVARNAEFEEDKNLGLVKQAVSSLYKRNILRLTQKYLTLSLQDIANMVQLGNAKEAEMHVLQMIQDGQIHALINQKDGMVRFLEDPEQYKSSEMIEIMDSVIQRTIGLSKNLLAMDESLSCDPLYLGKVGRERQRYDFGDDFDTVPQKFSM
Chain of NRP1, nodulin-related protein 1 (Q9ZQ80 whole entry): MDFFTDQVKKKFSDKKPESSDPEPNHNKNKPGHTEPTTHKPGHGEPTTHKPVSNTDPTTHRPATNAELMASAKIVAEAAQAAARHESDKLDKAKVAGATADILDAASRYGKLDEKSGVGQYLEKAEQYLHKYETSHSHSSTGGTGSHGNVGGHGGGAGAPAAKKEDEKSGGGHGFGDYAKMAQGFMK
Chain of WAK4, wall associated kinase 4 (Q9LMN6 23-738): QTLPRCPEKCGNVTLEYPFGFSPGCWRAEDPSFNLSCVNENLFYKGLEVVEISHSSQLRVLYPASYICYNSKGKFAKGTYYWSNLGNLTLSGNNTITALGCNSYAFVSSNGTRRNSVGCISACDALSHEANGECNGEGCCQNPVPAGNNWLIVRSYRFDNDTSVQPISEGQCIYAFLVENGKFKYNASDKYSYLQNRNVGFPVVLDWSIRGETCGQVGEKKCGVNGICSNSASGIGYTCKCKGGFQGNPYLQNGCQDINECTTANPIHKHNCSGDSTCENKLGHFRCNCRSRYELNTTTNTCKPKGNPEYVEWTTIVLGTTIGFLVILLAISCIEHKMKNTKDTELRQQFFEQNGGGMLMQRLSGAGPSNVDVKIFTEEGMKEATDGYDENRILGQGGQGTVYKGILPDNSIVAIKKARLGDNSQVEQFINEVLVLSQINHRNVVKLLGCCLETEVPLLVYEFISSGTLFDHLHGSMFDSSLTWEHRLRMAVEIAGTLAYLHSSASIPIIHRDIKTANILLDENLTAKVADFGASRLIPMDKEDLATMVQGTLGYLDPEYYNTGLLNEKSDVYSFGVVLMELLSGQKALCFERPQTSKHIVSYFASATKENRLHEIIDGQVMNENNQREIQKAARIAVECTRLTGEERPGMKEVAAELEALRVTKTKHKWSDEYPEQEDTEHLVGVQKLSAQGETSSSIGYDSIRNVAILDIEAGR
Chain of P-loop containing nucleoside triphosphate hydrolases superfamily protein (AT2G28620) (F4IIS5 whole entry): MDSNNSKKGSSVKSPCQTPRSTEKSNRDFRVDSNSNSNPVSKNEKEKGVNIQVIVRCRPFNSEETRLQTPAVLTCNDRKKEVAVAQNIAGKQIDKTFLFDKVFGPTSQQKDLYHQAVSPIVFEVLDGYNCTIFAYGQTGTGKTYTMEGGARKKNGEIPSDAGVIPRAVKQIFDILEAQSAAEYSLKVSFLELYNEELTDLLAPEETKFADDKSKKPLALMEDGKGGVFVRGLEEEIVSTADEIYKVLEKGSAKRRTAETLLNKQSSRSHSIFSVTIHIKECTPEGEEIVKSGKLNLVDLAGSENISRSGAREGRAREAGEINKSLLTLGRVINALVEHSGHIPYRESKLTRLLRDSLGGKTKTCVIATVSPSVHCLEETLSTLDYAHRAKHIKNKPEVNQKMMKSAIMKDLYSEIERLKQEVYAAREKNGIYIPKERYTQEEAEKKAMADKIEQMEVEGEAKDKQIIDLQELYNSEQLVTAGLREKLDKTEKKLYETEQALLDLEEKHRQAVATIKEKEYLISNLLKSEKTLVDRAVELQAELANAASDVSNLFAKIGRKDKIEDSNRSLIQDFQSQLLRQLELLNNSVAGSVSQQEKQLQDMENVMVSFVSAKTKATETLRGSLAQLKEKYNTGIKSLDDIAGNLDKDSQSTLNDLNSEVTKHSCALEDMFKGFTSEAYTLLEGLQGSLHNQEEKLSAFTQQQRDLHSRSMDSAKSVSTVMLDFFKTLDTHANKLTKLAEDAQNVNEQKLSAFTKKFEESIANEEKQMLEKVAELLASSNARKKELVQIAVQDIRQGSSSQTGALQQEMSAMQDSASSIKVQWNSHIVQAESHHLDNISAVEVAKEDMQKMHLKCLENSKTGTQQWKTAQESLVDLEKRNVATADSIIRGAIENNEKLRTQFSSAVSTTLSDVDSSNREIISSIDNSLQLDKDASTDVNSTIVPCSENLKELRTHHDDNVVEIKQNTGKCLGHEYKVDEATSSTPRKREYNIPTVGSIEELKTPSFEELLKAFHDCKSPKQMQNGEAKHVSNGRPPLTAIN
Chain of ROC3, rotamase CYP 3 (Q38900 whole entry): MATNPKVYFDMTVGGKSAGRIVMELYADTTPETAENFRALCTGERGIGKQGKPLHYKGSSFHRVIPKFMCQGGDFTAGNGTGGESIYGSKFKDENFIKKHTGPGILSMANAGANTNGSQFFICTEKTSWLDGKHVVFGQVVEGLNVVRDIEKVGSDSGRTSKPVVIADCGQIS
Chain of BCS1, cytochrome BC1 synthesis (Q8VZG2 whole entry): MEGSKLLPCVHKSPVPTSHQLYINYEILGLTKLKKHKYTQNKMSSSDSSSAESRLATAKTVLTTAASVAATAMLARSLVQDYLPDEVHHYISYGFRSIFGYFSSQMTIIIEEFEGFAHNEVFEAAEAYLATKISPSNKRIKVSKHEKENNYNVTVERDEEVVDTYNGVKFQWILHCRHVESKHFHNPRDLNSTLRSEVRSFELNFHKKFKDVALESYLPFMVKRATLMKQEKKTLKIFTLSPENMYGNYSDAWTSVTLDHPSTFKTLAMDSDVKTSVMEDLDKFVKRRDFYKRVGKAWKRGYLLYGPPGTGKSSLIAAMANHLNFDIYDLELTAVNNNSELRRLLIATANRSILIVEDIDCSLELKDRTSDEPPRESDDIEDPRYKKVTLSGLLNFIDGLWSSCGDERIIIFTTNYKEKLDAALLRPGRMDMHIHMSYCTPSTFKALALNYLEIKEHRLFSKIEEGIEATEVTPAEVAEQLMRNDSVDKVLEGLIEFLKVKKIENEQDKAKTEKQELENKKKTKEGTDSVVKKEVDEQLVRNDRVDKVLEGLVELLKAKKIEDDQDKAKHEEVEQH
Chain of SQE3, squalene epoxidase 3 (Q8VYH2 whole entry): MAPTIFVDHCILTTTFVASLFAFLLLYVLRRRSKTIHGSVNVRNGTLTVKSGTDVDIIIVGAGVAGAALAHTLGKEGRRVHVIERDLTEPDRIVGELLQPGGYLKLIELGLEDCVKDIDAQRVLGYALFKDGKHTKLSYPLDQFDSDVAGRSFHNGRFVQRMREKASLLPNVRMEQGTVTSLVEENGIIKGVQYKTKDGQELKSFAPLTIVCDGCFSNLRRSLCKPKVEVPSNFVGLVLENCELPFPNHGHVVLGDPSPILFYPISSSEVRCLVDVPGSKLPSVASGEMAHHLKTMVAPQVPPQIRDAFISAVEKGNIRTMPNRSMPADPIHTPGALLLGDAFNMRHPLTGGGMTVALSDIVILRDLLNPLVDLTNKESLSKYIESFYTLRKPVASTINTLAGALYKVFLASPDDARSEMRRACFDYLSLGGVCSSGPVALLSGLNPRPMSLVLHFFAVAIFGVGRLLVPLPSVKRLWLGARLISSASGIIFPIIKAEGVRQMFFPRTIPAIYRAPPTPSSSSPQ
Chain of SCPL27, serine carboxypeptidase-like 27 (Q9SFB5 21-459): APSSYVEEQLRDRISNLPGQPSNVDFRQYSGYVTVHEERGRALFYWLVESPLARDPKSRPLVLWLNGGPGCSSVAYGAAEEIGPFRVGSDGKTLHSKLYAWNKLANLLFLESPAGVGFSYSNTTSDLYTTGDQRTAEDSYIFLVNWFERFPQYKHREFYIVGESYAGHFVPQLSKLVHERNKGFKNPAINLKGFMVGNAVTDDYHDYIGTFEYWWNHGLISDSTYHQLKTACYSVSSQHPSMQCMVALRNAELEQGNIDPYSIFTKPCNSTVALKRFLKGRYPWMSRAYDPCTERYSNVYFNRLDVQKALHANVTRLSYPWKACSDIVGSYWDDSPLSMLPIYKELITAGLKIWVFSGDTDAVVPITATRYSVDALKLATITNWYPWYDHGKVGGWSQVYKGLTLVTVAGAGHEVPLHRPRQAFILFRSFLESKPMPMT
Chain of TOC34, translocon at the outer envelope membrane of chloroplasts 34 (Q38906 2-313): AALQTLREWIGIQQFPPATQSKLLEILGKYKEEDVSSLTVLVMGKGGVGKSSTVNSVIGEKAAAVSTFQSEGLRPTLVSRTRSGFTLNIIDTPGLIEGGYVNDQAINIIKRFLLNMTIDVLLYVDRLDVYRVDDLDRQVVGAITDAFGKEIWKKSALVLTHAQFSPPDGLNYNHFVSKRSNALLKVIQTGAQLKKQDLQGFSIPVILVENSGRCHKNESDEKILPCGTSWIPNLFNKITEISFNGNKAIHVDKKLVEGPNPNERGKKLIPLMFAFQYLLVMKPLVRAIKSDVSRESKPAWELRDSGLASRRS

The assay deals with sim3-GFP (Arabidopsis thaliana) (UniProt P93002). Description: sim3-GFP IP, LC-MS/MS.
Chain of sim3-GFP (Arabidopsis thaliana) (P93002 other isoform, or with tags, fused parts or gaps): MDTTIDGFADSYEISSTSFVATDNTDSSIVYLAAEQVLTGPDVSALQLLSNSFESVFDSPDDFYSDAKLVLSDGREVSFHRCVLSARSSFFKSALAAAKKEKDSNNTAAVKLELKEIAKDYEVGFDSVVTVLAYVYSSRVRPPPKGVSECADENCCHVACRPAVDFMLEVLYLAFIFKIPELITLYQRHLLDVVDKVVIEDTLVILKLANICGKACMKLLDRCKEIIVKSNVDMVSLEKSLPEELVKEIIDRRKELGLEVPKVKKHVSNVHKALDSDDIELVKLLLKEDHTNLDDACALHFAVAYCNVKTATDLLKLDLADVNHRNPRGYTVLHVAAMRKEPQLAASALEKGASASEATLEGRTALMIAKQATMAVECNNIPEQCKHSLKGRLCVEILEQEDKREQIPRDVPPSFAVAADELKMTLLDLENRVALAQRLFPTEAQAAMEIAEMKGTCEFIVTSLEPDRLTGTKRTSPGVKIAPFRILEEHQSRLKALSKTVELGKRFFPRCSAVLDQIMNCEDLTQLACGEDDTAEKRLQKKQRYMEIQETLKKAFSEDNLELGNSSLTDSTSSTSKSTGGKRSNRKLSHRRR
EDA10 returned a Normalized Fold Change: SA vs Mock of 2.22 fold.

In turn, ATM1, myosin 1 gave a Normalized Fold Change: SA vs Mock of 2.33 fold.

With “S-adenosyl-L-methionine-dependent methyltransferases superfamily protein (AT1G55450)”, the Normalized Fold Change: SA vs Mock stood at 2.24 fold.

WAK4, wall associated kinase 4 came in with a Normalized Fold Change: SA vs Mock of 8.98 fold.

The substance “FAD/NAD(P)-binding oxidoreductase family protein (AT5G22140)” had a Normalized Fold Change: SA vs Mock of 9.82 fold.

As to “Transducin/WD40 repeat-like superfamily protein (AT3G15610)”, the Normalized Fold Change: SA vs Mock turned out to be 2.26 fold.

In turn, “Leucine-rich repeat (LRR) family protein (AT5G45510)” gave a Normalized Fold Change: SA vs Mock of 5.05 fold.

For ERF1-2, eukaryotic release factor 1-2, the Normalized Fold Change: SA vs Mock was 2.5 fold.

Turning to “Disease resistance protein (TIR-NBS class) (AT3G04210)”, the Normalized Fold Change: SA vs Mock turned out to be 7.6 fold.

In turn, “TTG1, Transducin/WD40 repeat-like superfamily protein (from UniProt Q9XGN1 1-341)” gave a Normalized Fold Change: SA vs Mock of 3.34 fold.

As for NRP1, nodulin-related protein 1, the Normalized Fold Change: SA vs Mock was found to be 14.3 fold.

“CAM7, calmodulin 7 (from UniProt P59220 1-149)” had a Normalized Fold Change: SA vs Mock of 3.96 fold.

In the case of “P-loop containing nucleoside triphosphate hydrolases superfamily protein (AT3G28510)”, the Normalized Fold Change: SA vs Mock was 6.35 fold.

On to RNR1, ribonucleotide reductase 1, for which the Normalized Fold Change: SA vs Mock was found to be 2180 fold.

With CYP51, CYTOCHROME P450 51G1, the Normalized Fold Change: SA vs Mock came to 2.8 fold.

In turn, “TOC86, translocon at the outer envelope membrane of chloroplasts 159” had a Normalized Fold Change: SA vs Mock of 3.61 fold.

Substance EFE, ethylene-forming enzyme came in with a Normalized Fold Change: SA vs Mock of 2.16 fold.

“ATR4, CYP83B1, RED1, RNT1, SUR2, cytochrome P450, family 83, subfamily B, polypeptide 1 (from UniProt O65782 1-499)” registered a Normalized Fold Change: SA vs Mock of 2.42 fold.

The substance “PAD3, Cytochrome P450 superfamily protein (from UniProt Q9LW27 1-490)” gave a Normalized Fold Change: SA vs Mock of 14.6 fold.

Turning to GDH1, glutamate dehydrogenase 1, the Normalized Fold Change: SA vs Mock came out at 86.4 fold.

SQE3, squalene epoxidase 3 displayed a Normalized Fold Change: SA vs Mock of 50.1 fold.

“Disease resistance protein (TIR-NBS-LRR class) (AT4G19510)” displayed a Normalized Fold Change: SA vs Mock of 5.17 fold.

For the substance “UBA1, ubiquitin-activating enzyme 1 (from UniProt P93028 1-1080)”, the Normalized Fold Change: SA vs Mock worked out at 3.32 fold.

In turn, “NPR2, NPR1-like protein 2 (from UniProt Q9SZI3 1-600)” had a Normalized Fold Change: SA vs Mock of 16.7 fold.

“EDA39, calmodulin-binding family protein” displayed a Normalized Fold Change: SA vs Mock of 3.1 fold.

Substance “FUS11, Proteasome component (PCI) domain protein” yielded a Normalized Fold Change: SA vs Mock of 2.75 fold.

With “Transducin/WD40 repeat-like superfamily protein (AT3G45620)”, the Normalized Fold Change: SA vs Mock turned out to be 3.67 fold.

On to “TOC34, translocon at the outer envelope membrane of chloroplasts 34”, for which the Normalized Fold Change: SA vs Mock was 9.76 fold.

On to ATCNX1, CNX1, calnexin 1, for which the Normalized Fold Change: SA vs Mock is 5.26 fold.

For the substance “P-loop containing nucleoside triphosphate hydrolases superfamily protein (AT2G28620)”, the Normalized Fold Change: SA vs Mock turned out to be 7.17 fold.

SAG2, aleurain-like protease came in with a Normalized Fold Change: SA vs Mock of 4.08 fold.

With EDS1, enhanced disease susceptability, the Normalized Fold Change: SA vs Mock came to 3.18 fold.

With “S-adenosyl-L-methionine-dependent methyltransferases superfamily protein (AT2G32160)”, the Normalized Fold Change: SA vs Mock came out at 3.44 fold.

Substance “SOUL-1, SOUL heme-binding family protein” yielded a Normalized Fold Change: SA vs Mock of 2.93 fold.

Regarding “AOAT2, GGT2, alanine-2-oxoglutarate aminotransferase 2”, the Normalized Fold Change: SA vs Mock came to 10.5 fold.

The substance “DDB1A, damaged DNA binding protein 1A (from UniProt Q9M0V3 1-1088)” registered a Normalized Fold Change: SA vs Mock of 2.52 fold.

For “NPR3, NPR1-like protein 3 (from UniProt Q8L746 1-586)”, the Normalized Fold Change: SA vs Mock is 9.4 fold.

For the substance “GSTU19, glutathione S-transferase TAU 19 (from UniProt Q9ZRW8 1-219)”, the Normalized Fold Change: SA vs Mock stood at 2.58 fold.

Turning to “ATPAD4, PAD4, alpha/beta-Hydrolases superfamily protein (from UniProt Q9S745 1-541)”, the Normalized Fold Change: SA vs Mock worked out at 3.23 fold.

For the substance “PCNA2, proliferating cell nuclear antigen 2”, the Normalized Fold Change: SA vs Mock came to 2.83 fold.

Consider IMPA1, importin alpha isoform 1, for which the Normalized Fold Change: SA vs Mock came to 2.09 fold.

For AT3G53470, the Normalized Fold Change: SA vs Mock is 4.35 fold.

RNA helicase family protein (AT3G62310) had a Normalized Fold Change: SA vs Mock of 7.18 fold.

In the case of “ATMDAR2, Pyridine nucleotide-disulphide oxidoreductase family protein”, the Normalized Fold Change: SA vs Mock stood at 2.75 fold.

Consider “NAD(P)-binding Rossmann-fold superfamily protein (AT4G13180)”, for which the Normalized Fold Change: SA vs Mock is 5.46 fold.

In turn, TPS10, trehalose phosphate synthase gave a Normalized Fold Change: SA vs Mock of 2100 fold.

In turn, PLP2, phospholipase A 2A registered a Normalized Fold Change: SA vs Mock of 3.96 fold.

Consider AGD5, NEV, ARF-GAP domain 5, for which the Normalized Fold Change: SA vs Mock amounted to 8.65 fold.

On to PTEN 2, for which the Normalized Fold Change: SA vs Mock amounted to 2.24 fold.

Substance “GSTF6, glutathione S-transferase 6 (from UniProt P42760 1-208)” had a Normalized Fold Change: SA vs Mock of 2.01 fold.

In turn, BCS1, cytochrome BC1 synthesis showed a Normalized Fold Change: SA vs Mock of 16 fold.

“CER3, FLP1, WAX2, YRE, Fatty acid hydroxylase superfamily” had a Normalized Fold Change: SA vs Mock of 3320 fold.

As for ROC3, rotamase CYP 3, the Normalized Fold Change: SA vs Mock is 5.75 fold.

In the case of SCPL27, serine carboxypeptidase-like 27, the Normalized Fold Change: SA vs Mock was determined as 5810 fold.

As for “P-loop containing nucleoside triphosphate hydrolases superfamily protein (AT3G28540)”, the Normalized Fold Change: SA vs Mock amounted to 9.62 fold.

Substance HSP70, heat shock protein 70 registered a Normalized Fold Change: SA vs Mock of 4.72 fold.

In turn, “ATSPS4F, Sucrose-phosphate synthase family protein” came in with a Normalized Fold Change: SA vs Mock of 2.2 fold.

OPR1, 12-oxophytodienoate reductase 1 yielded a Normalized Fold Change: SA vs Mock of 4110 fold.

For the substance RD19A, Papain family cysteine protease, the Normalized Fold Change: SA vs Mock was found to be 3.14 fold.

Regarding UBQ6, ubiquitin 6, the Normalized Fold Change: SA vs Mock worked out at 2.04 fold.

PRH75, DEAD box RNA helicase (PRH75): the Normalized Fold Change: SA vs Mock turned out to be 5.9 fold.
